Source: patent US20120171123A1, “USES AND COMPOSITIONS FOR TREATMENT OF RHEUMATOID ARTHRITIS” (priority 2006, published 2012)

Assays:
adult patients with RA = experiment: Study 1: change in C-reactive protein at Week 12; type: in vivo, human
Procedure: 407 patients with active RA enrolled in the 2 study arms. Of these patients, 299 (73.5%) patients completed the study until Week 52 and were evaluated.
Patients were grouped into three cohorts based on baseline CRP concentrations: low (<1 mg/dL); intermediate (1-4 mg/dL); and high (>4 mg/dL). Analyses were further conducted in two categories of patients according to their change in CRP concentrations at Week 12: those with a ≧20% decrease in CRP from baseline; or those with a <20% decrease in CRP from baseline. The following efficacy and radiographic measures were analyzed at Week 52 in the three baseline CRP categories and in the two Week 12 change in CRP categories: DAS28, ACR 20/50/70, Health assessment questionnaire (HAQ), and Total Sharp score (TSS).

[1] = system: patients with RA who had failed prior treatment with infliximab; experiment: Adalimumab after failed infliximab: ACR20/ACR50 and moderate EULAR response; type: in vivo, human; conditions: 16 wk
Excerpt: Patients eligible to participate in the study included those with long-standing, moderate to severe RA who had terminated infliximab therapy because of lack or loss of efficacy and/or intolerance/side effects. […] Follow-up visits for safety and efficacy monitoring were scheduled at 2, 8, and 16 weeks. […] Efficacy parameters included TJC28 and SJC28; DAS28; ACR20, ACR50 Response; Moderate EULAR response; and HAQ. Subgroup analysis by reason for discontinuation included: • in case of discontinuation due to lack or loss of efficacy, patients were counted in the corresponding group regardless of additional cause of intolerance. • The subgroup “Discontinuation due to intolerance” was exclusive.

[2] = system: patients with long-standing RA; experiment: Study I open-label extension: HAQ; type: in vivo, human; conditions: 5 years
Procedure: (§1) Demographic data, age, gender, disease duration, rheumatoid factor and changes in TJC, SJC, CRP, DAS28, HAQ and ACR responses were analysed. Baseline demographics and disease characteristics as well as efficacy measures at last visit (ACR 20/50/70, DAS28, HAQ) were compared between the groups. All patients, including those who discontinued from the trial, were evaluated
(§2) Patients were eligible to enroll in Study I if they met ACR criteria for diagnosis of RA. […] Efficacy outcomes were assessed at pre-specified intervals as observed data. Treatment time was calculated beginning with the first subcutaneous injection of adalimumab at any dose, excluding time on placebo. Improvements in signs and symptoms of RA were evaluated for ACR20, ACR50, and ACR70 criteria, 28-joint count Disease Activity Score (DAS28) using the CRP-based formula, and Health Assessment Questionnaire (HAQ). Patients with changes in dosage of MTX or corticosteroids were evaluated for at least 6 months; these patients were eligible for the extension study for at least 6 months and were eligible for discretionary dose tapering. Patients were monitored for adverse events (AEs) during the entire length of the study, from signed informed consent through last visit.

[3] = system: patients with long-standing RA; experiment: Study 4: tender and swollen joint counts; type: in vivo, human
Procedure: At the last visit, 24% of participants had 0 tender joints and 21% of participants had 0 swollen joints.
Efficacy outcomes were evaluated as observed data: DAS28; ACR 20/50/70; Tender Joint Count (TJC); Swollen Joint Count (SJC); and HAQ Disability Index. Baseline demographics and disease characteristics were similar in both Study 4 and Study 5 consistent with moderate to severe RA, as shown below in Table 64: […]

[4] = system: patients with early vs. long-standing RA; experiment: Safety of adalimumab in global clinical trials, early vs long-standing RA (serious adverse event rates, demyelinating disease, lymphoma)
Excerpt: Study J was a 2-year randomized controlled trial in patients with early RA (disease duration<3 years). Participants in these clinical trials and in other phase Mb studies, were routinely evaluated for safety. Reports of serious adverse events (SAE) were tabulated using MedDRA coding by events per 100-patient-years (E/100PY). SAE rates were compared with respect to disease duration between patients with early (<3 yrs) and long-standing RA.

[5] = system: patients with long-standing RA; experiment: Study I open-label extension (adalimumab 40 mg eow + MTX): ACR response; type: in vivo, human; conditions: 5 years, observed
Procedure: 217 patients who completed the blinded period and participated in the extension trial for a minimum of 6 months were allowed to adjust MTX and/or corticosteroid dosages at the discretion of the principal investigators. Dose tapering was conducted according to standard medical practice with respect to controlling disease activity
as §1, §2

[6] = all reasons for infliximab withdrawal (N=37)
[7] = loss of response to infliximab (N=19)
[8] = no response to infliximab (N=13)
[9] = All Trials adalimumab (4870 PY), data for registration
[10] = Combined (long-standing + early RA)
[11] = Early RA, Study J (N=542; 917 PY)
[12] = Early RA, Study J, N (Exposure) 542 (917)
[13] = Long-standing RA, 31-Aug.-2004 (N=10,050; 12,066 PY)
[14] = Long-standing RA, 31-Aug.-2004, N (Exposure) 10,050 (12,066)

CN(Cc1cnc2nc(N)nc(N)c2n1)c1ccc(C(=O)N[C@@H](CCC(=O)O)C(=O)O)cc1 [mtx alone, methotrexate]
patients with <20% decrease in CRP (adult patients with RA): 67% | patients with ≧20% decrease in CRP (adult patients with RA): 33%

adalimumab: human anti-TNF mAb (HUMIRA, Abbott Laboratories), described in U.S. Pat. No. 6,090,382 as D2E7
ACR20 [1, 6]: 49% | ACR50 [1, 6]: 26% | Moderate EULAR response [1, 6]: 65% | ACR20 ([1]; infliximab intolerance (N=5)): 40% | ACR50 ([1]; infliximab intolerance (N=5)): 20% | Moderate EULAR response ([1]; infliximab intolerance (N=5)): 80% | ACR20 [1, 7]: 61% | ACR50 [1, 7]: 39% | Moderate EULAR response [1, 7]: 74% | ACR20 [1, 8]: 33% | ACR50 [1, 8]: 8% | Moderate EULAR response [1, 8]: 46% | patients with no physical limitations (HAQ=0) [2]: 28% | SJC (0-66), % change of mean clinical improvement from baseline ([3]; 6 months): 58% | TJC (0-68), % change of mean clinical improvement from baseline ([3]; 6 months): 64% | SJC (0-66), % change of mean clinical improvement from baseline ([3]; 12 months): 67% | TJC (0-68), % change of mean clinical improvement from baseline ([3]; 12 months): 69% | SJC (0-66), % change of mean clinical improvement from baseline ([3]; 24 months): 69% | TJC (0-68), % change of mean clinical improvement from baseline ([3]; 24 months): 72% | SJC (0-66), % change of mean clinical improvement from baseline ([3]; 36 months): 68% | TJC (0-68), % change of mean clinical improvement from baseline ([3]; 36 months): 75% | SJC (0-66), % change of mean clinical improvement from baseline ([3]; 48 months): 61% | TJC (0-68), % change of mean clinical improvement from baseline ([3]; 48 months): 78% | median number of swollen joints ([3]; end of four years): 3 | median number of tender joints ([3]; end of four years): 2 | participants with 0 swollen joints ([3]; last visit (n=846 analysis)): 21% | participants with 0 tender joints ([3]; last visit (n=846 analysis)): 24% | Malignancies [4, 9]: 0.006 N/PY | Pneumonia [4, 9]: 0.008 N/PY | TB [4, 9]: 0.003 N/PY | Total lymphomas, Expected [4, 10]: 5.16 cases | Total lymphomas, Observed [4, 10]: 15 cases | Total lymphomas, SIR [4, 10]: 2.91 | Total lymphomas, Expected ([4]; Early RA): 0.37 cases | Total lymphomas, Observed ([4]; Early RA): 0 cases | Total lymphomas, SIR ([4]; Early RA): 0 | cases of lymphoma ([4]; Early RA): No cases | Congestive Heart Failure rate [4, 11]: 0.11 E/100PY | Demyelinating Diseases rate [4, 11]: 0.00 E/100PY | Lymphoma rate [4, 11]: 0.00 E/100PY | Pancytopenia rate [4, 11]: 0.00 E/100PY | Pneumonia (serious) rate [4, 11]: 0.55 E/100PY | SLE/Lupus-like Syndrome rate [4, 11]: 0.00 E/100PY | Septic Arthritis rate [4, 11]: 0.22 E/100PY | Serious Infections rate [4, 11]: 1.85 E/100PY | Tuberculosis rate [4, 11]: 0.11 E/100PY | Urinary Tract Infections (serious) rate [4, 11]: 0.11 E/100PY | Cases of Guillain-Barre syndrome [4, 12]: 0 cases | Cases of Multiple sclerosis [4, 12]: 0 cases | Cases of Non-specific demyelination [4, 12]: 0 cases | Hodgkin's, Expected ([4]; Long-standing RA): 0.36 cases | Hodgkin's, Observed ([4]; Long-standing RA): 1 cases | Hodgkin's, SIR ([4]; Long-standing RA): 2.78 | NHL, Expected ([4]; Long-standing RA): 4.32 cases | NHL, Observed ([4]; Long-standing RA): 14 cases | NHL, SIR ([4]; Long-standing RA): 3.24 | Total lymphomas, Expected ([4]; Long-standing RA): 4.68 cases | Total lymphomas, Observed ([4]; Long-standing RA): 15 cases | Total lymphomas, SIR ([4]; Long-standing RA): 3.21 | Congestive Heart Failure rate [4, 13]: 0.26 E/100PY | Demyelinating Diseases rate [4, 13]: 0.07 E/100PY | Lymphoma rate [4, 13]: 0.11 E/100PY | Pancytopenia rate [4, 13]: 0.02 E/100PY | Pneumonia (serious) rate [4, 13]: 0.87 E/100PY | SLE/Lupus-like Syndrome rate [4, 13]: 0.06 E/100PY | Septic Arthritis rate [4, 13]: 0.46 E/100PY | Serious Infections rate [4, 13]: 4.79 E/100PY | Tuberculosis rate [4, 13]: 0.24 E/100PY | Urinary Tract Infections (serious) rate [4, 13]: 0.38 E/100PY | Cases of Guillain-Barre syndrome [4, 14]: 2 cases | Cases of Multiple sclerosis [4, 14]: 4 cases | Cases of Non-specific demyelination [4, 14]: 2 cases | lymphoma combined SIR ([4]; all RA patients in adalimumab clinical trials, 95% CI 1.63-4.80): 2.91 | cases of demyelinating diseases ([4]; early RA (Study J)): No cases | cases of demyelinating diseases ([4]; long-standing RA, through Aug. 31, 2004): Eight | cases of lymphoma ([4]; long-standing RA, through August 2004): Fifteen | ACR20 [5]: 76% | ACR50 [5]: 64% | ACR70 [5]: 39%
